The series “cross-linking” deals with the molecule itself. The series is described as follows: cross-linking.
In the next series the target is RAD51 WT (Homo sapiens, UniProt Q06609 1-339). The series is described as follows: BLI. For orientation: BLI is a label-free optical method that tracks binding on a fibre tip over time.

The values below come from doi:10.1101/2023.08.11.552966 (bioRxiv, 2023).

B1: His-tagged RAD51 S97A (non phosphorylable mutant) (natural protein)
chain: MAMQMQLEANADTSVEEESFGPQPISRLEQCGINANDVKKLEEAGFHTVEAVAYAPKKELINIKGISEAKADKILAEAAKLVPMGFTTATEFHQRRAEIIQITTGSKELDKLLQGGIETGSITEMFGEFRTGKTQICHTLAVTCQLPIDRGGGEGKAMYIDTEGTFRPERLLAVAERYGLSGSDVLDNVAYARAFNTDHQTQLLYQASAMMVESRYALLIVDSATALYRTDYSGRGELSARQMHLARFLRMLLRLADEFGVAVVITNQVVAQVDGAAMFAADPKKPIGGNIIAHASTTRLYLRKGRGETRICKIYDSPCLPEAEAMFAINADGVGDAKD
On to B1, for which, in “cross-linking”, the binding result is “binds”.

B2: His-tagged RAD51 S97D (phosphomimetic mutant) (natural protein)
chain: MAMQMQLEANADTSVEEESFGPQPISRLEQCGINANDVKKLEEAGFHTVEAVAYAPKKELINIKGISEAKADKILAEAAKLVPMGFTTATEFHQRRDEIIQITTGSKELDKLLQGGIETGSITEMFGEFRTGKTQICHTLAVTCQLPIDRGGGEGKAMYIDTEGTFRPERLLAVAERYGLSGSDVLDNVAYARAFNTDHQTQLLYQASAMMVESRYALLIVDSATALYRTDYSGRGELSARQMHLARFLRMLLRLADEFGVAVVITNQVVAQVDGAAMFAADPKKPIGGNIIAHASTTRLYLRKGRGETRICKIYDSPCLPEAEAMFAINADGVGDAKD
For the molecule B2, the binding result in “cross-linking” is listed as “binds”. Consider GCCAUCCGCAAAAAUGACCUCUUAUCAAAAGGA (ssRNA) [33m RNA], for which the Kd – broadly, the free concentration of one partner at which half of the binding sites on the other are occupied at equilibrium, for simple one-to-one binding – with RAD51 WT turned out to be 530 nM. TCCTTTTGATAAGAGGTCATTTTTGCGGATGGC (ssDNA) [33m DNA] returned a Kd with RAD51 WT of 3840 nM.
